Assays:
[1] = system: 293T cells; test: Glucose consumption of transfected cells; type: cell-based, human; conditions: normalized to cellular protein content
Protocol: Envelope expression and metabolic measurements. 293T cells were transfected with the various envelope expression vectors using a modified version of the calcium phosphate method. After an overnight transfection, cells were washed in phosphate-buffered saline (PBS) and fresh medium was added. Media were harvested at the indicated time points, filtered through a 0.45-μm pore-size filter, and lactate and glucose were measured with enzymatic diagnostic kits (Sigma). Values were normalized to cellular protein content using the Bradford assay (Sigma) after solubilization of cells in lysis buffer (50 mM Tris-HCl pH 8.0, 150 mM NaCl, 0.1% sodium dodecyl sulfate, 1.0% Nonidet P-40, 0.5% deoxycholate) and clarification by centrifugation.

[2] = system: human primary hepatocytes; test: RBD binding on human primary hepatocytes

B1: H1RBD: first 215 residues of HTLV-1 SU fused to a C-terminal rabbit IgG Fc tag (rFc) (protein)
chain: DYSPSCCTLTIGVSSYHSKPCNPAQPVCSWTLDLLALSADQALQPPCPNLVSYSSYHATYSLYLFPHWIKKPNRNGGGYYSASYSDPCSLKCPYLGCQSWTCPYTGAVSSPYWKFQQDVNFTQEVSRLNINLHFSKCGFPFSLLVDAPGYDPIWFLNTEPSQLPPTAPPLLPHSNLDHILEPSIPWKSKLLTLVQVDVPRDCGCKPCICTVPEVSSVFIFPPKPKDVLTITLTPKVTCVVVDISKDDPEVQFSWFVDDVEVHTAQTQPREEQFNSTFRSVSELPIMHQDWLNGKEFKCRVNSAAFPAPIEKTISKTKGRPKAPQVYTIPPPKEQMAKDKVSLTCMITDFFPEDITVEWQWNGQPAENYKNTQPIMDTDGSYFVYSKLNVQKSNWEAGNTFTCSVLHEGLHNHHTEKSLSHSPGK
In the case of B1, the “Glucose consumption compared to control cells” value [1] is reported as “significantly decreased” and the “binding to human primary hepatocytes” value [2] is reported as “unable to detect H1RBD binding”.
